Measured values: publication PMC11748629, “Unidirectional MCM translocation away from ORC drives origin licensing” (Nature Communications, 2025)
Values belong to the binder of their own block, whether it stands above or below them.

B2: Orc4 (natural protein, Saccharomyces cerevisiae)
chain: MTISEARLSPQVNLLPIKRHSNEEVEETAAILKKRTIDNEKCKDSDPGFGSLQRRLLQQLYGTLPTDEKIIFTYLQDCQQEIDRIIKQSIIQKESHSVILVGPRQSYKTYLLDYELSLLQQSYKEQFITIRLNGFIHSEQTAINGIATQLEQQLQKIHGSEEKIDDTSLETISSGSLTEVFEKILLLLDSTTKTRNEDSGEVDRESITKITVVFIFDEIDTFAGPVRQTLLYNLFDMVEHSRVPVCIFGCTTKLNILEYLEKRVKSRFSQRVIYMPQIQNLDDMVDAVRNLLTVRSEISPWVSQWNETLEKELSDPRSNLNRHIRMNFETFRSLPTLKNSIIPLVATSKNFGSLCTAIKSCSFLDIYNKNQLSNNLTGRLQSLSDLELAILISAARVALRAKDGSFNFNLAYAEYEKMIKAINSRIPTVAPTTNVGTGQSTFSIDNTIKLWLKKDVKNVWENLVQLDFFTEKSAVGLRDNATAAFYASNYQFQGTMIPFDLRSYQMQIILQELRRIIPKSNMYYSWTQL
notes: Orc4, S. cerevisiae; Subunit of m1, written alone for the contacts seen in the structures; also called Orc4 subunit of ORC; source: S. cerevisiae strain ySD-ORC, purified as a subunit of ORC

Tests used:
Assay in all cases: cryo-EM structure; OCCM^Mcm2RA: 30 nM MH-ARS1-MH DNA, 60 nM ORC, 90 nM Cdc6, 60 nM MCM-Cdt1 (Mcm2 R676A), 3 mM ATP; 25 mM HEPES pH 7.6, 100 mM potassium chloride, 10 mM magnesium acetate, 1 mM DTT; 30 °C, 30 min; 3.3 Å consensus, 3.2 Å local refinements
Conditions in all cases: both partners purified
Orc3 = molecular target: T1, Orc3 (Saccharomyces cerevisiae, UniProt P54790 1-616)
T1 construct: Orc3, S. cerevisiae; Subunit of m1, written alone for the contacts seen in the structures; also called Orc3 subunit of ORC; source: S. cerevisiae strain ySD-ORC, purified as a subunit of ORC
T1 sequence: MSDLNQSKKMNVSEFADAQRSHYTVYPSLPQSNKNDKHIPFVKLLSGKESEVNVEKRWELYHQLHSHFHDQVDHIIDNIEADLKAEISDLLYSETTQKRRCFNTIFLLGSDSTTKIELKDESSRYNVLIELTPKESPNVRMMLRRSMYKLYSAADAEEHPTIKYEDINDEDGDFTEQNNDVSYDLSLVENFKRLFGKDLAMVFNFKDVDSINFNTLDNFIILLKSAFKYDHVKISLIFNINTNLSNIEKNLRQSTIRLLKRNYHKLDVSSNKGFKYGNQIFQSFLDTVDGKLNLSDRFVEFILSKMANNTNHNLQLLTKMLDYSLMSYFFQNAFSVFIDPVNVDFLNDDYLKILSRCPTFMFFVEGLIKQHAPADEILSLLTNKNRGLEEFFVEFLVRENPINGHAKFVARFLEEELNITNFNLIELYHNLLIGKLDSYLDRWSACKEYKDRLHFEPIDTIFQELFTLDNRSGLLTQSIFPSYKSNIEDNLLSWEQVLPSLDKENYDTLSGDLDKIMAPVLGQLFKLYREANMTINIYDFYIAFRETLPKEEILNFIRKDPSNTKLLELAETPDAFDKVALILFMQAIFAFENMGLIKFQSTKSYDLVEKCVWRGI

Orc4 = molecular target: B2
Orc1 = molecular target: T2, Orc1 (Saccharomyces cerevisiae, UniProt P54784 1-914)
T2 construct: Orc1, S. cerevisiae; Subunit of m1, written alone for the contacts seen in the structures; also called Orc1 subunit of ORC; source: S. cerevisiae strain ySD-ORC, purified as a subunit of ORC
T2 sequence: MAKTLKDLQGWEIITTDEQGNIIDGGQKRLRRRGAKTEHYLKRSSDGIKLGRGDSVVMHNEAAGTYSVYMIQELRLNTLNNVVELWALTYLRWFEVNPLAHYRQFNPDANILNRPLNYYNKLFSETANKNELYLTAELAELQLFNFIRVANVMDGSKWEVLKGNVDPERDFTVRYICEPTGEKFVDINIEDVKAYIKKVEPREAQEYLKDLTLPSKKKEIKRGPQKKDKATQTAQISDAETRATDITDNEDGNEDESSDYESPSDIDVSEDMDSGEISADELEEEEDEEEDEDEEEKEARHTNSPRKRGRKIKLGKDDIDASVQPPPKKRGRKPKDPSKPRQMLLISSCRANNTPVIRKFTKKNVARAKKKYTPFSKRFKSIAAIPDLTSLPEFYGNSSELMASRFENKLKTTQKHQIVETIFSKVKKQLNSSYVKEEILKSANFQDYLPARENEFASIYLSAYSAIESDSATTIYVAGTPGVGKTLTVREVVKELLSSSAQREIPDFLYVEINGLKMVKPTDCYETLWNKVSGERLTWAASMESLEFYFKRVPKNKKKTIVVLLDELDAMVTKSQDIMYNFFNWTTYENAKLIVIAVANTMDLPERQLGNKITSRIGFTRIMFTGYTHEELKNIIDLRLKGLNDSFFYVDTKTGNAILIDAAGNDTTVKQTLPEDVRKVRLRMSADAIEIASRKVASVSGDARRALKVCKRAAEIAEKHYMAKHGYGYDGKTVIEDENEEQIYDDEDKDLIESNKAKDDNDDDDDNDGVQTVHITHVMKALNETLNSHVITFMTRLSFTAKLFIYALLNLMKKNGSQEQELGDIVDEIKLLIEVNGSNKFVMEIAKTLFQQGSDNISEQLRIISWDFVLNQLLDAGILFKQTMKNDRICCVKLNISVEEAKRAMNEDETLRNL

Mcm6 = molecular target: T3, Mcm6 (Saccharomyces cerevisiae, UniProt P53091 1-1017)
T3 construct: Mcm6, S. cerevisiae; Subunit of m4 and m7, written alone for the contacts seen in the structures; also called Mcm6 subunit of MCM; source: S. cerevisiae strains yGC216 and yGC226, purified as a subunit of MCM-Cdt1

[1] = molecular target: T4, Origin Recognition Complex (ORC) (Saccharomyces cerevisiae, UniProt P54784 1-914; P32833 1-620; P54790 1-616; P54791 1-529; P50874 1-479; P38826 …)
T4 construct: Orc1, S. cerevisiae; Orc2, S. cerevisiae; Orc3, S. cerevisiae; Orc4, S. cerevisiae; Orc5, S. cerevisiae; Orc6, S. cerevisiae; also called ORC complex; copies: + + + + +
T4 sequence (P32833 whole entry, chain 2 of 2): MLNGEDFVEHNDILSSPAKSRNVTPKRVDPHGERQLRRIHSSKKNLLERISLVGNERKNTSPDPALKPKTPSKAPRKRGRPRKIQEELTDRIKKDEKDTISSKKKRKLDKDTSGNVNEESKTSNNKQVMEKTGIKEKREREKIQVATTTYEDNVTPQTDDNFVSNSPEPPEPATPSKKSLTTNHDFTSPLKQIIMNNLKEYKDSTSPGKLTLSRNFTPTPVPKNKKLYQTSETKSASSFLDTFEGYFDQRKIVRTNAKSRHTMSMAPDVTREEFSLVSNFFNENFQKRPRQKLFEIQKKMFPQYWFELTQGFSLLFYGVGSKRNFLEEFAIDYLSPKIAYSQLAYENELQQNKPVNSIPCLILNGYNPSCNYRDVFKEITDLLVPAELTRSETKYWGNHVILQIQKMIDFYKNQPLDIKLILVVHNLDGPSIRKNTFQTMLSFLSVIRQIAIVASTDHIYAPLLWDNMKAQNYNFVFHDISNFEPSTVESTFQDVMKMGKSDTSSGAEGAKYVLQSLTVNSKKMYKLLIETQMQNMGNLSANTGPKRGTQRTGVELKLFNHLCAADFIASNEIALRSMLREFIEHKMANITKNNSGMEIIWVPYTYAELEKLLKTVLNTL
T4 sequence (P38826 whole entry, chain 6 of 2): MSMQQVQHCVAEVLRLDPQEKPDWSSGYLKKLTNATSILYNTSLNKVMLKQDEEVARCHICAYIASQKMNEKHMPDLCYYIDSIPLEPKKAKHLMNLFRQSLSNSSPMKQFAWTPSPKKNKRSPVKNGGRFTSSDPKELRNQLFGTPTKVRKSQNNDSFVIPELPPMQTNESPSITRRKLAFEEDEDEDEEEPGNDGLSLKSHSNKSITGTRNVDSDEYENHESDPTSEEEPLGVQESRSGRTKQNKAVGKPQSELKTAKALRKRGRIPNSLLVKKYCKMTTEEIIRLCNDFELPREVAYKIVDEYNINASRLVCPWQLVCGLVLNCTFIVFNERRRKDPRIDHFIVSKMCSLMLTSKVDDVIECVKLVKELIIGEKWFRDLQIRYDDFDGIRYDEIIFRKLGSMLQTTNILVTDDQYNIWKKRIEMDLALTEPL

T3 sequence (P53091 whole entry): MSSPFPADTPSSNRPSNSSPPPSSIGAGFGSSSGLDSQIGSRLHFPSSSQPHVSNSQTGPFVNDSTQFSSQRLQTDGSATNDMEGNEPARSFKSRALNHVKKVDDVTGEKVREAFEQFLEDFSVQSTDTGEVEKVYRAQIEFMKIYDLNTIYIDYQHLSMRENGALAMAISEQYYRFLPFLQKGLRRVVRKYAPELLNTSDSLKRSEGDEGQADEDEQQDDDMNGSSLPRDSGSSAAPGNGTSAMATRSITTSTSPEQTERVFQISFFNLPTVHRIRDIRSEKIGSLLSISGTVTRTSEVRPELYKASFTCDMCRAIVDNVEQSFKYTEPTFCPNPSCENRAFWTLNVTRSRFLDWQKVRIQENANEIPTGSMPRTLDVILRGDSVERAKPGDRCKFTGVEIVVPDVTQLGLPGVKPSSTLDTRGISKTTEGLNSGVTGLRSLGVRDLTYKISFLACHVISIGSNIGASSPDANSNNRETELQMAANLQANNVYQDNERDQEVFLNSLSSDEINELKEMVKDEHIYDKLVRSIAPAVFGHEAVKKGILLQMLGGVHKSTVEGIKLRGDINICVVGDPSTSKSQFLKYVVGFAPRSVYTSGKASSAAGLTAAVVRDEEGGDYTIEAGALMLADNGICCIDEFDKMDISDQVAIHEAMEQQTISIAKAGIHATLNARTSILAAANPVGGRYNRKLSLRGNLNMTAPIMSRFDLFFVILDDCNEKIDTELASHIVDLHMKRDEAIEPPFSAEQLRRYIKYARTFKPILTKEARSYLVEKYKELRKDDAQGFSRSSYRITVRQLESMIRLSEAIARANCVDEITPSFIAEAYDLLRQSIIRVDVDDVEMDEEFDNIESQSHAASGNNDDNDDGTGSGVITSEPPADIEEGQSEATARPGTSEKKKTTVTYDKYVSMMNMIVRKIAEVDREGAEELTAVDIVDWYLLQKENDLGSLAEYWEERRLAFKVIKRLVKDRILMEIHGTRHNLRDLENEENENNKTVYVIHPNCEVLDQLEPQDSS

binding result (Orc3): binds
binding result (Orc4): binds
B1: Orc5 (natural protein, Saccharomyces cerevisiae)
chain: MNVTTPEVAFREYQTNCLASYISADPDITPSNLILQGYSGTGKTYTLKKYFNANPNLHAVWLEPVELVSWKPLLQAIARTVQYKLKTLYPNIPTTDYDPLQVEEPFLLVKTLHNIFVQYESLQEKTCLFLILDGFDSLQDLDAALFNKYIKLNELLPKDSKINIKFIYTMLETSFLQRYSTHCIPTVMFPRYNVDEVSTILVMSRCGELMEDSCLRKRIIEEQITDCTDDQFQNVAANFIHLIVQAFHSYTGNDIFALNDLIDFKWPKYVSRITKENIFEPLALYKSAIKLFLSTDDNLSENGQGESAITTNRDDLENSQTYDLSIISKYLLIASYICSYLEPRYDASIFSRKTRIIQGRAAYGRRKKKEVNPRYLQPSLFAIERLLAIFQAIFPIQGKAESGSLSALREESLMKANIEVFQNLSELHTLKLIATTMNKNIDYLSPKVRWKVNVPWEIIKEISESVHFNISDYFSDIHE
notes: Orc5, S. cerevisiae; Subunit of m1, written alone for the contacts seen in the structures; also called Orc5 subunit of ORC; source: S. cerevisiae strain ySD-ORC, purified as a subunit of ORC

Binder: B2
binding result (Orc1): binds

binding result (Mcm6): binds
B3: Mcm2 R676A (natural protein, Saccharomyces cerevisiae)
chain: MSDNRRRRREEDDSDSENELPPSSPQQHFRGGMNPVSSPIGSPDMINPEGDDNEVDDVPDIDEVEEQMNEVDLMDDNMYEDYAADHNRDRYDPDQVDDREQQELSLSERRRIDAQLNERDRLLRNVAYIDDEDEEQEGAAQLDEMGLPVQRRRRRRQYEDLENSDDDLLSDMDIDPLREELTLESLSNVKANSYSEWITQPNVSRTIARELKSFLLEYTDETGRSVYGARIRTLGEMNSESLEVNYRHLAESKAILALFLAKCPEEMLKIFDLVAMEATELHYPDYARIHSEIHVRISDFPTIYSLRELRESNLSSLVRVTGVVTRRTGVFPQLKYVKFNCLKCGSILGPFFQDSNEEIRISFCTNCKSKGPFRVNGEKTVYRNYQRVTLQEAPGTVPPGRLPRHREVILLADLVDVSKPGEEVEVTGIYKNNYDGNLNAKNGFPVFATIIEANSIKRREGNTANEGEEGLDVFSWTEEEEREFRKISRDRGIIDKIISSMAPSIYGHRDIKTAVACSLFGGVPKNVNGKHSIRGDINVLLLGDPGTAKSQILKYVEKTAHRAVFATGQGASAVGLTASVRKDPITKEWTLEGGALVLADKGVCLIDEFDKMNDQDRTSIHEAMEQQSISISKAGIVTTLQARCSIIAAANPNGGRYNSTLPLAQNVSLTEPILSAFDILCVVRDLVDEEADERLATFVVDSHVRSHPENDEDREGEELKNNGESAIEQGEDEINEQLNARQRRLQRQRKKEEEISPIPQELLMKYIHYARTKIYPKLHQMDMDKVSRVYADLRRESISTGSFPITVRHLESILRIAESFAKMRLSEFVSSYDLDRAIKVVVDSFVDAQKVSVRRQLRRSFAIYTLGH
notes: Mcm2, S. cerevisiae; Subunit of m4, written alone for the contacts seen in OCCM^Mcm2RA; also called Mcm2RA; source: S. cerevisiae strain yGC216, purified as a subunit of MCM-Cdt1

binding result [1]: binds
binding result (Orc1): binds
B4: Saccharomyces cerevisiae Cdc6 (natural protein, UniProt P09119 1-513, looked up)
chain: MSAIPITPTKRIRRNLFDDAPATPPRPLKRKKLQFTDVTPESSPEKLQFGSQSIFLRTKALLQKSSELVNLNSSDGALPARTAEYEQVMNFLAKAISEHRSDSLYITGPPGTGKTAQLDMIIRQKFQSLPLSLSTPRSKDVLRHTNPNLQNLSWFELPDGRLESVAVTSINCISLGEPSSIFQKIFDSFQDLNGPTLQIKNMQHLQKFLEPYHKKTTFVVVLDEMDRLLHANTSETQSVRTILELFLLAKLPTVSFVLIGMANSLDMKDRFLSRLNLDRGLLPQTIVFQPYTAEQMYEIVIQKMSSLPTIIFQPMAIKFAAKKCAGNTGDLRKLFDVLRGSIEIYELEKRFLLSPTRGSLNSAQVPLTPTTSPVKKSYPEPQGKIGLNYIAKVFSKFVNNNSTRTRIAKLNIQQKLILCTIIQSLKLNSDATIDESFDHYIKAITKTDTLAPLQRNEFLEICTILETCGLVSIKKTKCKGKTKRFVDKIDVDLDMREFYDEMTKISILKPFLH
notes: Cdc6, S. cerevisiae; source: E. coli BL21(CodonPlus)-RIL, plasmid pAM3, purified (glutathione sepharose, preScission protease, hydroxyapatite)
